Experimental data taken from patent US20240307562A1 (ONCOONE RESEARCH AND DEVELOPMENT, published 2024).

Key:
[1] = molecular target: T1, Recombinant human MIF immobilized on ELISA plates (oxMIF) (human, UniProt P14174 2-115); assay: ELISA on immobilized human MIF (oxMIF), anti-human IgG (Fc)-HRP detection; EC50 taken as apparent KD
T1 construct: also called immobilized MIF; oxidized MIF
Procedure: (§1) Recombinant human MIF diluted in PBS at 1 μg/ml was immobilized into ELISA plates overnight at 4° C. (transforming MIF to oxMIF according to Thiele et al., 2015). After blocking, serial dilutions of anti-oxMIF antibodies with and without DFO* conjugation (DFO* conjugation is described in Example 19) were added to the plates. Finally, bound antibodies were detected using a Goat anti-human IgG (Fc)-HRP conjugate and tetramethylbenzidine (TMB) as substrate. The chromogenic reaction was stopped with 3M H₂SO₄ and OD was measured at 450 nm. If data from different experiments were combined, the data were normalized to the maximal OD of the anti-oxMIF antibody C0008 (=100%) of the respective experiment and EC₅₀ values were determined by 4-parameter fit using GraphPad Prism (and the mean+/−SEM of two experiments is shown).
Results and conclusion: The binding of the newly designed antibodies towards immobilized MIF (oxMIF) was measured over a broad range of concentrations and the resulting binding curves are illustrated in FIG. 19. The anti-oxMIF antibody C0008 was used as reference for oxMIF binding. […] Additionally, DFO* conjugation of the newly designed Fc-silenced antibodies C0115 and C0118 has not changed their affinity (FIG. 19B).

[2] = molecular target: T1, Recombinant human MIF immobilized on …; assay: ELISA on immobilized human MIF (oxMIF), protein L-HRP detection; EC50 of 4-parameter fit taken as KD
Procedure: as §1, with “Material and Methods: Recombinant” for “Recombinant”, “antibodies” for “antibodies with and without DFO* conjugation (DFO* conjugation is described in Example 19)”, “protein L-HRP” for “Goat anti-human IgG (Fc)-HRP”, “Data” for “If data”, “experiments” for “experiments were combined, the data”, “mean” for “mean+/−SEM”

[3] = molecular target: human FcγRIIIA receptor, V158 (high affinity allotype) (human, UniProt P08637 17-254); assay: cell-based or functional assay
[4] = molecular target: T1, Recombinant human MIF immobilized on …; assay: ELISA on immobilized human MIF (oxMIF)
Procedure: as §1, with “Material and Methods: Recombinant” for “Recombinant”, “antibodies” for “antibodies with and without DFO* conjugation (DFO* conjugation is described in Example 19)”, “protein L-HRP” for “Goat anti-human IgG (Fc)-HRP”, “Data” for “If data”, “experiments” for “experiments were combined, the data”, “mean” for “mean+/−SEM”
Results and conclusion: The binding of the newly designed antibodies towards immobilized MIF (oxMIF) was measured over a broad range of concentrations and the resulting binding curves are illustrated in FIG. 8. The anti-oxMIF antibody C0008 was used as reference for oxMIF binding.

T1 sequence (P14174 2-115 limits assumed): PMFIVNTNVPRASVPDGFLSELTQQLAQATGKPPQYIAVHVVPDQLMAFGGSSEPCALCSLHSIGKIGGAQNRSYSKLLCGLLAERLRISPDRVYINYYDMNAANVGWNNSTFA
Sequence of human FcγRIIIA receptor, V158 (high affinity allotype) (P08637 17-254 F176V): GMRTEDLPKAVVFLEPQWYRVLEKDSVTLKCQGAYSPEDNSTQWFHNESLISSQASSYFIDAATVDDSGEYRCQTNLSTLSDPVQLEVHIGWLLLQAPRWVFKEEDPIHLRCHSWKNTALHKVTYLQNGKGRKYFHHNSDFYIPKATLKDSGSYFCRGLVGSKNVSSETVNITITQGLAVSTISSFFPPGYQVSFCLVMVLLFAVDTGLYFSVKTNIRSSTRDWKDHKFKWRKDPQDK

Binder	Kd [1] [nM]	Kd [2] [nM]	EC50 (read off the curve), ADCC reporter luminescence [3] [nM]	fold reduction in affinity compared to C0076 [4] [fold]
C0008 (Imalumab control antibody) (antibody, human IgG1, kappa, V domains shown, also called Bax69) VH: EVQLLESGGGLVQPGGSLRLSCAASGFTFSIYSMNWVRQAPGKGLEWVSSIGSSGGTTYYADSVKGRFTISRDNSKNTLYLQMNSLRAEDTAVYYCAGSQWLYGMDVWGQGTTVTVSS VL: DIQMTQSPSSLSASVGDRVTITCRSSQRIMTYLNWYQQKPGKAPKLLIFVASHSQSGVPSRFRGSGSETDFTLTISGLQPEDSATYYCQQSFWTPLTFGGGTKVEIKR	0.19	0.7		
C0118 (antibody, human IgG1, kappa, L234A L235A, IgG1 with Fc silencing L234A/L235A (EU numbering); also called Fc silenced anti-oxMIF antibody C0118) heavy: not shown light: DIQMTQSPSSLSASVGDRVTITCRSSQRILTYLNWYQQKPGKAPKLLIYVGSHSQSGVPSRFRGSGSETDFTLTISGLQSEDSATYYCQQSFFTPLTFGGGTKVEIKRTVAAPSVFIFPPSDEQLKSGTASVVCLLNNFYPREAKVQWKVDNALQSGNSQESVTEQDSKDSTYSLSSTLTLSKADYEKHKVYACEVTHQGLSSPVTKSFNRGEC	0.26			
C0115 (antibody, human IgG1, kappa, L234A L235A, IgG1 with Fc silencing L234A/L235A (EU numbering); also called Fc silenced anti-oxMIF antibody C0115) heavy: not shown light: DIQMTQSPSSLSASVGDRVTITCRSSQRIMTYLNWYQQKPGKAPKLLIYVGSHSQSGVPSRFRGSGSETDFTLTISGLQPEDSATYYCQQSFFTPLTFGGGTKVEIKRTVAAPSVFIFPPSDEQLKSGTASVVCLLNNFYPREAKVQWKVDNALQSGNSQESVTEQDSKDSTYSLSSTLTLSKADYEKHKVYACEVTHQGLSSPVTKSFNRGEC	0.28			
C0078 (antibody, human IgG1, kappa, IgG1, wt Fc) heavy: not shown light: DIQMTQSPSSLSASVGDRVTITCRSSQRIMTYLNWYQQKPGKAPKLLIYVGSHSQSGVPSRFRGSGSETDFTLTISGLQPEDSATYYCQQSFFTPLTFGGGTKVEIKRTVAAPSVFIFPPSDEQLKSGTASVVCLLNNFYPREAKVQWKVDNALQSGNSQESVTEQDSKDSTYSLSSTLTLSKADYEKHKVYACEVTHQGLSSPVTKSFNRGEC		1.6		
C0077 (antibody, human IgG1, kappa, name in Kabat numbering, V domains shown, IgG1, wt Fc) VH: EVQLQESGGGLVQPGGSLRLSCAASGFTFSIYSMNWVRQAPGKGLEWVSSIGSSGGTTYYADSVKGRFTISRDNSKNTLYLQMNSLRAEDTAVYYCAGSQWLYGMDVWGQGTTVTVSS VL: DIQMTQSPSSLSASVGDRVTITCRSSQRIMTYLNWFQQKPGKAPKLLIYVGSHSQSGVPSRFRGSGSETDFTLTISGLQPEDSATYYCQQSFWTPLTFGGGTKVEIKR		5.2		5

The remaining lines, values ahead:

Kd [1] [nM]	Kd [2] [nM]	EC50 (read off the curve), ADCC reporter luminescence [3] [nM]	fold reduction in affinity compared to C0076 [4] [fold]	Binder
	1			C0073 (antibody, human IgG1, kappa, IgG1, wt Fc) heavy: not shown light: DIQMTQSPSSLSASVGDRVTITCRSSQRIMTYLNWYQQKPGKAPKLLIYVGSHSQSGVPSRFRGSGSETDFTLTISGLQPEDSATYYCQQSFFTPLTFGGGTKVEIKRTVAAPSVFIFPPSDEQLKSGTASVVCLLNNFYPREAKVQWKVDNALQSGNSQESVTEQDSKDSTYSLSSTLTLSKADYEKHKVYACEVTHQGLSSPVTKSFNRGEC
	0.5	~3		C0090 (antibody, human IgG1, kappa, IgG1, wt Fc; also called parent antibody of C0118) heavy: not shown light: DIQMTQSPSSLSASVGDRVTITCRSSQRILTYLNWYQQKPGKAPKLLIYVGSHSQSGVPSRFRGSGSETDFTLTISGLQSEDSATYYCQQSFFTPLTFGGGTKVEIKRTVAAPSVFIFPPSDEQLKSGTASVVCLLNNFYPREAKVQWKVDNALQSGNSQESVTEQDSKDSTYSLSSTLTLSKADYEKHKVYACEVTHQGLSSPVTKSFNRGEC
	0.5	~3		C0083 (antibody, human IgG1, kappa, IgG1, wt Fc; also called parent antibody of C0115) heavy: not shown light: DIQMTQSPSSLSASVGDRVTITCRSSQRIMTYLNWYQQKPGKAPKLLIYVGSHSQSGVPSRFRGSGSETDFTLTISGLQPEDSATYYCQQSFFTPLTFGGGTKVEIKRTVAAPSVFIFPPSDEQLKSGTASVVCLLNNFYPREAKVQWKVDNALQSGNSQESVTEQDSKDSTYSLSSTLTLSKADYEKHKVYACEVTHQGLSSPVTKSFNRGEC
	1.1			C0076 (antibody, human IgG1, kappa, V domains shown, IgG1, wt Fc) VH: EVQLQESGGGLVQPGGSLRLSCAASGFTFSIYSMNWVRQAPGKGLEWVSSIGSSGGTTYYADSVKGRFTISRDNSKNTLYLQMNSLRAEDTAVYYCAGSQWLYGMDVWGQGTTVTVSS VL: DIQMTQSPSSLSASVGDRVTITCRSSQRIMTYLNWYQQKPGKAPKLLIYVGSHSQSGVPSRFRGSGSETDFTLTISGLQPEDSATYYCQQSFWTPLTFGGGTKVEIKR
